In paper PMC8546121 (Nature Communications, 2021):

B1: MACV MBP-Z fusion protein (full-length wild-type MACV Z protein) (natural protein)
chain: MGNCNKPPKRPPNTQTSAAQPSAEFRRTALPSLYGRYNCKCCWFADTNLITCNDHYLCLRCHQTMLRNSELCHICWKPLPTSITVPVEPSAPPP

Key:
[1] = molecular target: MACV MBP-Z fusion protein (full-length wild-type MACV Z protein) (Machupo virus) (UniProt Q6IUF9); experiment: […] (20 mM Tris-HCl pH 8.0, 500 mM NaCl, 2 mM DTT), […]
[2] = molecular target: Machupo virus (MACV) L protein (Machupo virus, UniProt Q6IUF8 1-2209); experiment: as above; conditions: both partners purified
Machupo virus (MACV) L protein, sequence (Q6IUF8 whole entry): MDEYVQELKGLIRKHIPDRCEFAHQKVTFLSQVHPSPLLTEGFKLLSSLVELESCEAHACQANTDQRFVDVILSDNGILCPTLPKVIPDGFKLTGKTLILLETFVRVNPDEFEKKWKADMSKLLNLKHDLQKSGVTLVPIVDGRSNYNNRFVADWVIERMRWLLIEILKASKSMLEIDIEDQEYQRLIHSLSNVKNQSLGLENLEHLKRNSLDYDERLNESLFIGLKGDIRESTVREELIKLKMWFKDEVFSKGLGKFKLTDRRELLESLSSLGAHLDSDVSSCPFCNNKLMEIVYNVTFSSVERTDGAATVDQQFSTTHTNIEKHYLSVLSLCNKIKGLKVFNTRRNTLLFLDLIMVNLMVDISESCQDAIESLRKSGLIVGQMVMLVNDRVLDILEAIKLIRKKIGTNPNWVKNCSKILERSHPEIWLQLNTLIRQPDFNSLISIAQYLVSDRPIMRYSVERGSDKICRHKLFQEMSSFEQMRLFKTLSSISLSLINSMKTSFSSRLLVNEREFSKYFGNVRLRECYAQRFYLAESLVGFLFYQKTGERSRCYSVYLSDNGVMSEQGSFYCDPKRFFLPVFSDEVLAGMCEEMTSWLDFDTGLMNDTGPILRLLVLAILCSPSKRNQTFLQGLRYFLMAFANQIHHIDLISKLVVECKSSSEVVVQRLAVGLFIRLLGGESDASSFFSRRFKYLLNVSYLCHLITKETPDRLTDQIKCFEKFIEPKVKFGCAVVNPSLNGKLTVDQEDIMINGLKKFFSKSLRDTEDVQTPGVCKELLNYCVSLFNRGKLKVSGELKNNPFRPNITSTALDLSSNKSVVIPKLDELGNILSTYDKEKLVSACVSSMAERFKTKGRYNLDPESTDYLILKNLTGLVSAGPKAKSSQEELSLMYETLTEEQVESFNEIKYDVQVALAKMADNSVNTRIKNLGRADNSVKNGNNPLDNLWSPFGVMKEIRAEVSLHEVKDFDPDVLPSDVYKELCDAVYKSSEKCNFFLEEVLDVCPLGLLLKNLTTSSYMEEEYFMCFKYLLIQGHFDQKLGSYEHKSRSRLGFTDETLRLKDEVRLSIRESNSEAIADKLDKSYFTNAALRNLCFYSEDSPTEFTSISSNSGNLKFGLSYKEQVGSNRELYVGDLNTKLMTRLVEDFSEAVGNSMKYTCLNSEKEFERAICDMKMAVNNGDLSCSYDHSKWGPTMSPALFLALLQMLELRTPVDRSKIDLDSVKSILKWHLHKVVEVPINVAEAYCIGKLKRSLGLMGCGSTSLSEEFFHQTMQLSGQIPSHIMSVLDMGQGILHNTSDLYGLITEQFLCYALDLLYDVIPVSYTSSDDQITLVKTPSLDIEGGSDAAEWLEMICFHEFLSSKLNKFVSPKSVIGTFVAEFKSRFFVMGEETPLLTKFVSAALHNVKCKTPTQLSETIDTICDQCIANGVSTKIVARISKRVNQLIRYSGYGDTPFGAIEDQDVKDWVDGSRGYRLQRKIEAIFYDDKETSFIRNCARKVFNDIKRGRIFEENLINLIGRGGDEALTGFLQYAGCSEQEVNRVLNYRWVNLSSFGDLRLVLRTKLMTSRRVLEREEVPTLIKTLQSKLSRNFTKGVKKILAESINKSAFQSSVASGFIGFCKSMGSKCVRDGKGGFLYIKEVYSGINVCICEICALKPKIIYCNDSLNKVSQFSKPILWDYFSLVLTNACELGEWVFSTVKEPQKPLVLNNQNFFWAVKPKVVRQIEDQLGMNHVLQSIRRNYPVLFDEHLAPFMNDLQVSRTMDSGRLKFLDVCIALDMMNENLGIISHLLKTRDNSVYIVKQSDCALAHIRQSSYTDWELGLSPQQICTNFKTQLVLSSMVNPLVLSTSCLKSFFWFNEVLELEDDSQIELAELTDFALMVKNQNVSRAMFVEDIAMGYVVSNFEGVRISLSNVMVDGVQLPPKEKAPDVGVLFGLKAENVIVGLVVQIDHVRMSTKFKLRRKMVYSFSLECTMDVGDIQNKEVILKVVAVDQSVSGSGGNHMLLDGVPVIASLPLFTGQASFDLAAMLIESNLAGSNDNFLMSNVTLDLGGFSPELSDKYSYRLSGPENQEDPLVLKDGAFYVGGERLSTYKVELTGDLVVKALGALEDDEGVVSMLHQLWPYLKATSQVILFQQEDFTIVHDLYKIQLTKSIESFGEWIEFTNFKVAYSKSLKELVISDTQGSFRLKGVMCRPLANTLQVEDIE

Row | Molecule | stoichiometry N [1] | binding result [2]
1 | Machupo virus (MACV) L protein, Q6IUF8 1-2209 | 1 Z:L | –
2 | B1 | – | binds
